# Reference: patent US20240279288A1, “APPLICATION OF PLANT JAZ PROTEINS AND DERIVED POLYPEPTIDES IN PREVENTION AND TREATMENT OF HUMAN AND ANIMAL TUMORS” (ANYANG INSTITUTE OF SINO-COTTON INDUSTRY INNOVATION, priority 2021, published 2024)
# B1: GhJAZ1: cotton JAZ1 protein, gene number Gh_A05G0260, sequence SEQ ID No. 4; prokaryotically expressed with His tag, about 30 KD (protein)
# chain: MSSCSESTAMKPARSPEKPSFAQTCNLLSQYLKEKGSFGDLSLGMTCNVEANGTPVVPPPTMNLFPLNDKSDDVCGRNGGNPKNLTSMDLFPQQAGLASKDDSPNKLEPQTAPMTIFYGGQVIVFNDFPANKAKEIMLLASNSSSQSNNSFNPIPFTSSIARSPIESSIGVPPTSKPVHPAQRAVPGDLPIARRASLHRFLEKRKDRITAKAPYQINNSAAAPSLSGDNKSWLGLAAQSP
# modifications: His tag
# notes: prokaryotically expressed with His tag, about 30 KD
# Experiments:
# [1] = tested on: ovarian cancer cells SKOV3; test: CCK8 cell viability detection, SKOV3; format: cell-based, human; settings: CCK8, 24 h treatment; read-out: IC50, inhibition of SKOV3 cells
# Experimental: CCK8 cell viability detection: cell suspension was seeded in 96-well plates at a concentration of 5×10^4 cells/ml (100 μL/well). The plates were placed in the incubator for pre-culture (at 37° C., 5% CO2), and control and protein agents were added to each well 24 h after seeding. The plates were then placed in the incubator for 24 h, followed by addition of 10 μL CCK8 solution into each well and incubation of the plates in the incubator for 0.5-2 h before the absorbance measurement at 450 nm using a microplate reader.
# Analysis of effect of GhJAZ1 protein on the cell cycle and apoptosis of tumor cells
# c-Myc [2] = target: T1, c-Myc (Homo sapiens, UniProt P01106); test: CO-IP with c-Myc in HEK293 cells; format: binding; parameters: host or cells: HEK293 cells (method paragraph: 293T)
# Experimental: (§1) Steps of method of CO-IP experiment: Non-denaturing lysate was added to 293T cell culture plate (Pricella, Cat. No.: CL-0005), and the cells were completely lysed at 4° C. The lysate was centrifuged at 12,000 rpm for 10 min and the supernatant was collected. The corresponding antibody was added to the obtained non-denatured protein solution, which was incubated overnight at 4° C. Pierce™ protein A/G magnetic agarose (Thermo Fisher Scientific, Inc.) were washed with lysis buffer, followed by addition pre-treated beads to the cell lysate, and incubation at room temperature for 2 hours. The mixture was centrifuged at 4° C., 2,500 rpm for 5 min with supernatant removed, and the agarose beads were washed 5 times with 1 ml of lysis buffer. An appropriate amount of protein loading buffer was added to the pellet, and the sample was incubated in water bath at 100° C. for 10 min. The band of interest was detected by Western blotting.
# Immunoprecipitation method (method of the experiment as Example 3) was used.
# c-Myc [3] = target: T1, c-Myc; test: Bimolecular fluorescence complementary experiment with c-Myc; format: binding; parameters: with the full length of c-Myc and NMYC, respectively; expressed in transfected cells; host or cells: yeast Y2HGold; settings: bimolecular fluorescence complementation, YFP signal in the nucleus of tobacco
# Description: GhJAZ1 (SEQ ID No. 39) was subcloned into pUC-SPYNE vector (Song, Yun, et al. “BIN2 negatively regulates plant defense against Verticillium dahliae in Arabidopsis and cotton.” Plant Biotechnology Journal (2021)) between the BamHI and XbaiI cleavage sites by the bimolecular fluorescence complementary experiment to construct pUC-SPYNE-GhJAZ1. c-Myc (NCBI accession number: NM_002467.6) was subcloned into pUC-SPYCE vector (Song, Yun, et al. “BIN2 negatively regulates plant defense against Verticillium dahliae in Arabidopsis and cotton.” Plant Biotechnology Journal (2021)) between BamHI and XbaiI cleavage sites to construct pUC-SPYCE-c-Myc. […] Testing of inhibitory effect of GhJAZ1 protein on tumor cells
# GhTPL = test: CO-IP experiment with GhTPL; format: binding, cotton
# Experimental: as §1
# GhMYC2 = test: Luciferase experiment in tobacco leaves with GhMYC2; format: binding, cotton; settings: no fluorescence on the control
# Description: Method of the luciferase experiment: GhJAZ1 (corresponding encoding gene sequence set forth in SEQ ID No. 39) was subcloned into pCAMBIA-CLuc vector (Chen, H., et al. “Firefly Luciferase Complementation Imaging Assay for Protein-Protein Interactions in Plants.” Plant Physiology 146.2(2008):368-376.) between KpnI and SalI cleavage sites, and the transcription factors such as GhMYC2 (corresponding encoding gene sequence set forth in SEQ ID No. 72), GhNINJA (corresponding encoding gene sequence set forth in SEQ ID No. 74), and GhCOI1 (corresponding encoding gene sequence set forth in SEQ ID No. 80) were subcloned into pCAMBIA-NLuc (Chen, H., et al. “Firefly Luciferase Complementation Imaging Assay for Protein-Protein Interactions in Plants.” Plant Physiology 146.2(2008):368-376.) between KpnI and SalI cleavage sites, respectively. […] Luciferase substrates were applied at the infected leaves before taking images and placed in a dark room for at least 6 min to quench fluorescence, followed by observation on the Nightowl-II LB983 instrument, using IndigoBasic software under the luciferase-5 min setting conditions.
# uPAR = uPAR (Homo sapiens, UniProt Q03405); test: CO-IP experiment with uPAR; format: binding; settings: in vivo
# Experimental: as §1, with “The mixture was centrifuged at 4° C., 2,500 rpm for 5 min with supernatant removed, and the agarose beads were washed 5 times with 1 ml of lysis buffer. An appropriate amount of protein loading buffer was added to the pellet, and the sample was incubated in water bath at 100° C. for 10 min.” left out
# In order to explore how GhJAZ1 enters cancer cells, we cloned the genes of most tumor surface receptors, including uPAR (NCBI database accession number of NM_002659.4), CCK1R (NP_000721.1), CCK2R (NP_001350481.1), HER2 (NP_004439.2), GRPR (NP_005305.1), MUC1 (NP_001358649.1), VEGFR1 (NP_002010.2), Insulin receptor (NM_000208.4), NTR (XM_011528827.2), PSMA (XM_017017432.1), TFR1 (NM_001128148.3), TFR2 (NM_003227.4), PEPT1 (NM_005073.4), APN (NM_001150.3). […] We detected the interaction of GhJAZ1 with uPA (as the ligand of uPAR, NCBI database accession number of NP_002649.2) and uPAR by yeast two hybrid (the steps of the experiment as Example 3). […]
# T1 sequence (P01106 whole entry): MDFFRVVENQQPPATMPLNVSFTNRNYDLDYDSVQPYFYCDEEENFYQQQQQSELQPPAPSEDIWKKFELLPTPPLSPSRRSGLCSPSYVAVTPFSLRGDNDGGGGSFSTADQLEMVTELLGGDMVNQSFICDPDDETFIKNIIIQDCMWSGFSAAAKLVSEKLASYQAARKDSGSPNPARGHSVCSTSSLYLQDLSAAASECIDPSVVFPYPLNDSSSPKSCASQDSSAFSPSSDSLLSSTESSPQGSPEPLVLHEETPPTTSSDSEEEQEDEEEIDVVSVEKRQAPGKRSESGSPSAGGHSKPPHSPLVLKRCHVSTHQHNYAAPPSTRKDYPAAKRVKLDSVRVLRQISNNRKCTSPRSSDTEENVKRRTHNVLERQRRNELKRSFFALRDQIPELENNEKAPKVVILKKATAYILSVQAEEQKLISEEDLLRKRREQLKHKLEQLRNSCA
# Chain of uPAR (Q03405 23-305): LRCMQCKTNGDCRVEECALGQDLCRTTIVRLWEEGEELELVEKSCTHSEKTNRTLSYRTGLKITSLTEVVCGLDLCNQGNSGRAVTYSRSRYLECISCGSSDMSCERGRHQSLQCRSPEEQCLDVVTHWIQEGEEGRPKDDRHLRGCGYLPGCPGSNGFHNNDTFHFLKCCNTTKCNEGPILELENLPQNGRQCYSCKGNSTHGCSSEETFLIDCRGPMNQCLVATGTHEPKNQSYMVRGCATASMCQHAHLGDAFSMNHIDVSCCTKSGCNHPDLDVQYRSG
# Chain of GhTPL (as listed by the source): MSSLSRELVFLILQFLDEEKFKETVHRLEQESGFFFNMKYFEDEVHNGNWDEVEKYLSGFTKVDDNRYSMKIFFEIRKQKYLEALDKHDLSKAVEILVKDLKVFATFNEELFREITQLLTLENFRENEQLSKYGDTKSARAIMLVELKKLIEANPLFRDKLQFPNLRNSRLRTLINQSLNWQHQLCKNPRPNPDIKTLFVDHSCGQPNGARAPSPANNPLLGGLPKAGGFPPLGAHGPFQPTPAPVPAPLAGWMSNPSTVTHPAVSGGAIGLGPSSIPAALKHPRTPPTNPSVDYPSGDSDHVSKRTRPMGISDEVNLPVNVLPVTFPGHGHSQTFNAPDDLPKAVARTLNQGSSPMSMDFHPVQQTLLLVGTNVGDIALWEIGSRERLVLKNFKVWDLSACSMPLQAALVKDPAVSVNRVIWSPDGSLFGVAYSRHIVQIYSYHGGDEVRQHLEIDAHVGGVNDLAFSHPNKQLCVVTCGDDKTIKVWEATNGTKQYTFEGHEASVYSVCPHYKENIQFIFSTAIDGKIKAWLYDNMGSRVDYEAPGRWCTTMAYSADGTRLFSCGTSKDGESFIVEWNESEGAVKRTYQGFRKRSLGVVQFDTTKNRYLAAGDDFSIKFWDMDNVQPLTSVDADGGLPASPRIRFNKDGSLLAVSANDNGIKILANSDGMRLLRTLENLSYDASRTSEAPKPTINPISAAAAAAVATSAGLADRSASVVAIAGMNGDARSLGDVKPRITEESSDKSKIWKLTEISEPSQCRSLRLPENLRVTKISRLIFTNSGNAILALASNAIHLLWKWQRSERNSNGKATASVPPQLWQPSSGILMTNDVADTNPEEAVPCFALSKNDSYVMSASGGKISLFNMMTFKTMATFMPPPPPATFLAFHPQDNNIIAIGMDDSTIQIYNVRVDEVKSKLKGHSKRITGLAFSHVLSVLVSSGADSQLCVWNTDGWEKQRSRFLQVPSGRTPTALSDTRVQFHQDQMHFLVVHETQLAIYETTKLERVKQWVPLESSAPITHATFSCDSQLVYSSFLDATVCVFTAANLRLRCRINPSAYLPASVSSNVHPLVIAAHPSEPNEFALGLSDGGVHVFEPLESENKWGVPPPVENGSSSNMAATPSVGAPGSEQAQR
# Chain of GhMYC2 (as listed by the source): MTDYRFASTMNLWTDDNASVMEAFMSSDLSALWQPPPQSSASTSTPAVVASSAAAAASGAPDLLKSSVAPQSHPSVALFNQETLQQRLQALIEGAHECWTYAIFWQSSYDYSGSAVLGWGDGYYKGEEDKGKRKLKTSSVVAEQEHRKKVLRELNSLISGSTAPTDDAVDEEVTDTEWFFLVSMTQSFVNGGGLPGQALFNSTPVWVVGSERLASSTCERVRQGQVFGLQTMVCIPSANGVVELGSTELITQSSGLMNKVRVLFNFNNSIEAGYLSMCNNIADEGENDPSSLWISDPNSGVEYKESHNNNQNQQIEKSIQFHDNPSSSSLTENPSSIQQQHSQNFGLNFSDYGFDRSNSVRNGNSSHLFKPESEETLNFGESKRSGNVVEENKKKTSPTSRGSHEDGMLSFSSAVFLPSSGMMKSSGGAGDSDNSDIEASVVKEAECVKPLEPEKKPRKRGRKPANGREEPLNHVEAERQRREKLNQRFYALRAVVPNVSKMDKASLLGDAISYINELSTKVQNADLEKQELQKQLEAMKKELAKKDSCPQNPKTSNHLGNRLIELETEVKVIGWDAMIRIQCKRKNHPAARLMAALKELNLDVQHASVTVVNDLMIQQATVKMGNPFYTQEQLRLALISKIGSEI
molecule,measurement,setting,value
B1,IC50,[1],784 nM
same,interaction with c-Myc,c-Myc [2],interacted
same,interaction with c-Myc,c-Myc [3],interaction
same,interaction with GhTPL,GhTPL,interacts
same,fluorescence with GhMYC2 after applying luciferase substrate,GhMYC2,stronger fluorescence
same,interaction with uPAR,uPAR,interacts
